According to PMC9482650, “Quantitative fragmentomics allow affinity mapping of interactomes” (Nature Communications, 2022):

T1: LNX2_1, Q8N448
T1 sequence (Q8N448 228-328, limits assumed, looked up): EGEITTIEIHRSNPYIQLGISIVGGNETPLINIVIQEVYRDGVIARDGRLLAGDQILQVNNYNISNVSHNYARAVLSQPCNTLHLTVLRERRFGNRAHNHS


Assays:
Assay in all cases: holdup assay
Parameters in all cases: key: below the threshold = too weak to quantify, mostly under pKd 3.1 to 4
Conditions in all cases: plain residues with an end cap or a label only (N-terminal biotin on a linker: ttds)
Q9H190 = biological target: Q9H190
O43166 = biological target: O43166
Q9NR12 = biological target: Q9NR12
Q9NPB6 = biological target: Q9NPB6
Q96JB8 = biological target: Q96JB8
Q8IUC4 = biological target: Q8IUC4
Q9C0E4 = biological target: Q9C0E4
O60759 = biological target: O60759
Q9UDY2 = biological target: Q9UDY2
Q5TCQ9 = biological target: Q5TCQ9
Q8TB45 = biological target: Q8TB45
Q8TEW0 = biological target: Q8TEW0
Q70Z35 = biological target: Q70Z35
Q96SB3 = biological target: Q96SB3
O00233 = biological target: O00233
PTPN13_2, Q12923 = biological target: PTPN13_2, Q12923
Chain of PTPN13_2, Q12923 (Q12923 1363-1462): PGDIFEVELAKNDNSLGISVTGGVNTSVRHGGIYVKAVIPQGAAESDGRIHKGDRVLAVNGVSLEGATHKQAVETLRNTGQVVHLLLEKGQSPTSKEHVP

O15021 = biological target: O15021
Q6ZWJ1 = biological target: Q6ZWJ1
Q96HC4 = biological target: Q96HC4
O00560 = biological target: O00560
Q12923 = biological target: Q12923
Q96JY6 = biological target: Q96JY6
O75970 = biological target: O75970
Q13368 = biological target: Q13368
Q96FS4 = biological target: Q96FS4
Q9P227 = biological target: Q9P227
Q9Y3R0 = biological target: Q9Y3R0
LIMK1, P53667 = biological target: LIMK1, P53667
Chain of LIMK1, P53667 (P53667 155-268): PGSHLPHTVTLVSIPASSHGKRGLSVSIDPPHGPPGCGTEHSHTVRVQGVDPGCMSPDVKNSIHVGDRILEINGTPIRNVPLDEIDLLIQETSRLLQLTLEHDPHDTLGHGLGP

LNX2_1, Q8N448 = biological target: T1, LNX2_1, Q8N448

Binder	pKd (Q9H190)	pKd (O43166)	pKd (Q9NR12)	pKd (Q9NPB6)	pKd (Q96JB8)	pKd (Q8IUC4)	pKd (Q9C0E4)	pKd (O60759)	pKd (Q9UDY2)	pKd (Q5TCQ9)	pKd (Q8TB45)	pKd (Q8TEW0)	pKd (Q70Z35)	pKd (O00233)	pKd (PTPN13_2, Q12923)	pKd (O15021)	pKd (Q6ZWJ1)	pKd (Q96HC4)	pKd (O00560)	pKd (Q12923)	further results
PPRQRSETQV [HPV82-E6, Q9IR59]	below the threshold	below the threshold	below the threshold	below the threshold	below the threshold	below the threshold	below the threshold	below the threshold	below the threshold	below the threshold	below the threshold	below the threshold	below the threshold	below the threshold	below the threshold	below the threshold	below the threshold	below the threshold	below the threshold	below the threshold	pKd (Q96SB3): below the threshold; pKd (Q96JY6): below the threshold; pKd (O75970): below the threshold; pKd (Q13368): below the threshold; pKd (Q96FS4): below the threshold; pKd (Q9P227): below the threshold; pKd (Q9Y3R0): below the threshold
SSIDLWETAL [SLC15A5, A6NIM6]	below the threshold	below the threshold	below the threshold	below the threshold	below the threshold	below the threshold	below the threshold	below the threshold	below the threshold	below the threshold	below the threshold	below the threshold	below the threshold	below the threshold	–	below the threshold	below the threshold	below the threshold	below the threshold	below the threshold	pKd (LIMK1, P53667): below the threshold; pKd (Q96SB3): below the threshold; pKd (Q96JY6): below the threshold; pKd (O75970): below the threshold; pKd (Q13368): below the threshold; pKd (Q96FS4): below the threshold; pKd (Q9P227): below the threshold; pKd (Q9Y3R0): below the threshold
SGGKRKETLV [NET1, Q7Z628]	–	–	–	–	–	–	–	–	–	–	–	–	–	–	below the threshold	–	–	–	–	–	pKd (LNX2_1, Q8N448): below the threshold
SRSRRRETAL [HPV33-E6, P06427]	–	–	–	–	–	–	–	–	–	–	–	–	–	–	–	–	–	–	–	–	pKd (LIMK1, P53667): below the threshold
SHSSKGETAV [FZD7, O75084]	below the threshold	below the threshold	below the threshold	below the threshold	below the threshold	below the threshold	below the threshold	below the threshold	below the threshold	below the threshold	below the threshold	below the threshold	below the threshold	below the threshold	below the threshold	below the threshold	below the threshold	below the threshold	below the threshold	below the threshold	pKd (LIMK1, P53667): below the threshold; pKd (Q96SB3): below the threshold; pKd (Q96JY6): below the threshold; pKd (O75970): below the threshold; pKd (Q13368): below the threshold; pKd (Q96FS4): below the threshold; pKd (Q9P227): below the threshold; pKd (Q9Y3R0): below the threshold
KLVIKTETTV [RASSF6, Q6ZTQ3]	below the threshold	below the threshold	below the threshold	below the threshold	below the threshold	below the threshold	below the threshold	below the threshold	below the threshold	below the threshold	below the threshold	below the threshold	below the threshold	below the threshold	below the threshold	below the threshold	below the threshold	below the threshold	below the threshold	below the threshold	pKd (LIMK1, P53667): 4.37; pKd (Q96JY6): below the threshold; pKd (O75970): below the threshold; pKd (Q13368): below the threshold; pKd (Q96FS4): below the threshold; pKd (Q9Y3R0): below the threshold
PSRDRKETSI [RALBP1, Q15311]	below the threshold	below the threshold	below the threshold	below the threshold	below the threshold	below the threshold	below the threshold	below the threshold	below the threshold	below the threshold	below the threshold	below the threshold	below the threshold	below the threshold	3.79	below the threshold	below the threshold	below the threshold	below the threshold	below the threshold	pKd (LIMK1, P53667): 4.16; pKd (Q96JY6): below the threshold; pKd (O75970): below the threshold; pKd (Q13368): below the threshold; pKd (Q96FS4): below the threshold; pKd (Q9P227): below the threshold; pKd (Q9Y3R0): below the threshold
